Reference: IntAct's records for PubMed 31515488

B1: Hematopoietic prostaglandin D synthase (Homo sapiens), O60760 (parent)
chain: MPNYKLTYFNMRGRAEIIRYIFAYLDIQYEDHRIEQADWPEIKSTLPFGKIPILEVDGLTLHQSLAIARYLTKNTDLAGNTEMEQCHVDAIVDTLDDFMSCFPWAEKKQDVKEQMFNELLTYNAPHLMQDLDTYLGGREWLIGNSVTWADFYWEICSTTLLVFKPDLLDNHPRLVTLRKKVQAIPAVANWIKRRPQTKL
partner: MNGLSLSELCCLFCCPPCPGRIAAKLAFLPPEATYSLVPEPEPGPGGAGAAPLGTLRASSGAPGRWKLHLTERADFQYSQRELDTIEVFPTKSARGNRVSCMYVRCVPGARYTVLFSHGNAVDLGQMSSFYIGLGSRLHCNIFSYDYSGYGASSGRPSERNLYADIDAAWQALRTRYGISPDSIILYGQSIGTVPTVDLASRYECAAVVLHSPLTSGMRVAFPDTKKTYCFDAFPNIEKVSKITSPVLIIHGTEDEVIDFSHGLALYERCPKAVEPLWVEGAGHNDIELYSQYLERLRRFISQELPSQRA
B2: Trichoplein keratin filament-binding protein (Homo sapiens), Q9BT92 (parent)
chain: MALPTLPSYWCSQQRLNQQLARQREQEARLRQQWEQNSRYFRMSDICSSKQAEWSSKTSYQRSMHAYQREKMKEEKRRSLEARREKLRQLMQEEQDLLARELEELRLSMNLQERRIREQHGKLKSAKEEQRKLIAEQLLYEHWKKNNPKLREMELDLHQKHVVNSWEMQKEEKKQQEATAEQENKRYENEYERARREALERMKAEEERRQLEDKLQAEALLQQMEELKLKEVEATKLKKEQENLLKQRWELERLEEERKQMEAFRQKAELGRFLRHQYNAQLSRRTQQIQEELEADRRILQALLEKEDESQRLHLARREQVMADVAWMKQAIEEQLQLERAREAELQMLLREEAKEMWEKREAEWARERSARDRLMSEVLTGRQQQIQEKIEQNRRAQEESLKHREQLIRNLEEVRELARREKEESEKLKSARKQELEAQVAERRLQAWEADQQEEEEEEEARRVEQLSDALLQQEAETMAEQGYRPKPYGHPKIAWN
partner: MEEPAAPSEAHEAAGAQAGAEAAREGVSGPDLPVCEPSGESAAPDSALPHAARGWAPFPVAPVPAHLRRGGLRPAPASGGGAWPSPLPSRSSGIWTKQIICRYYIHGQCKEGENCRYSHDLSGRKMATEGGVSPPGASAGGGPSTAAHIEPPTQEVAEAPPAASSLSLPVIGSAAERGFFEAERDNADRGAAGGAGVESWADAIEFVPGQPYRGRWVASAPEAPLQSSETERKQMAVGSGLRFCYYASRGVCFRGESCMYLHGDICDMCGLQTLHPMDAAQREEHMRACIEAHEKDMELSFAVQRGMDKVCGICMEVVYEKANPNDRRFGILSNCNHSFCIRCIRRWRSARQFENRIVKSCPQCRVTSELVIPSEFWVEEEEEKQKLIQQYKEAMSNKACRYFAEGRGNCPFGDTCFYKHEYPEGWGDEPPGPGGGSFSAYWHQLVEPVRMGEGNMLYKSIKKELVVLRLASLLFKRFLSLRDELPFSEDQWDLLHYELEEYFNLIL
B3: Probable RNA-binding protein EIF1AD (Homo sapiens), Q8N9N8 (parent)
chain: MSQATKRKHVVKEVLGEHIVPSDQQQIVRVLRTPGNNLHEVETAQGQRFLVSMPSKYRKNIWIKRGDFLIVDPIEEGEKVKAEISFVLCKDHVRSLQKEGFWPEAFSEVAEKHNNRNRQTQPELPAEPQLSGEESSSEDDSDLFVNTNRRQYHESEEESEEEEAA
B4: Calcium-binding and coiled-coil domain-containing protein 2 (Homo sapiens), Q13137 (parent)
chain: MEETIKDPPTSAVLLDHCHFSQVIFNSVEKFYIPGGDVTCHYTFTQHFIPRRKDWIGIFRVGWKTTREYYTFMWVTLPIDLNNKSAKQQEVQFKAYYLPKDDEYYQFCYVDEDGVVRGASIPFQFRPENEEDILVVTTQGEVEEIEQHNKELCKENQELKDSCISLQKQNSDMQAELQKKQEELETLQSINKKLELKVKEQKDYWETELLQLKEQNQKMSSENEKMGIRVDQLQAQLSTQEKEMEKLVQGDQDKTEQLEQLKKENDHLFLSLTEQRKDQKKLEQTVEQMKQNETTAMKKQQELMDENFDLSKRLSENEIICNALQRQKERLEGENDLLKRENSRLLSYMGLDFNSLPYQVPTSDEGGARQNPGLAYGNPYSGIQESSSPSPLSIKKCPICKADDICDHTLEQQQMQPLCFNCPICDKIFPATEKQIFEDHVFCHSL
partner: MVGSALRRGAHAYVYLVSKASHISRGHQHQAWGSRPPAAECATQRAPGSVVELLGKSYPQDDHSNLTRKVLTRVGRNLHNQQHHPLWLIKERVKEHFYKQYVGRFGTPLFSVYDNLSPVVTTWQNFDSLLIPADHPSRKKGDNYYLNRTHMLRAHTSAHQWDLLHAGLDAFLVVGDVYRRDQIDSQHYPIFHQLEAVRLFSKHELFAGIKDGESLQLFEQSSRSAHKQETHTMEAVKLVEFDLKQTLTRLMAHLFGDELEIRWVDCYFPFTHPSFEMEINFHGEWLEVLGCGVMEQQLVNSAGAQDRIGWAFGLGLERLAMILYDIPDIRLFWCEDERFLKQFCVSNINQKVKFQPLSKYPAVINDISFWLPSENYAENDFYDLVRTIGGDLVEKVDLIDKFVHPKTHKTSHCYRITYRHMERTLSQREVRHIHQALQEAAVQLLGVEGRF
B5: Tripartite motif-containing protein 10 (Homo sapiens), Q9UDY6 (parent)
chain: MASAASVTSLADEVNCPICQGTLREPVTIDCGHNFCRACLTRYCEIPGPDLEESPTCPLCKEPFRPGSFRPNWQLANVVENIERLQLVSTLGLGEEDVCQEHGEKIYFFCEDDEMQLCVVCREAGEHATHTMRFLEDAAAPYREQIHKCLKCLRKEREEIQEIQSRENKRMQVLLTQVSTKRQQVISEFAHLRKFLEEQQSILLAQLESQDGDILRQRDEFDLLVAGEICRFSALIEELEEKNERPARELLTDIRSTLIRCETRKCRKPVAVSPELGQRIRDFPQQALPLQREMKMFLEKLCFELDYEPAHISLDPQTSHPKLLLSEDHQRAQFSYKWQNSPDNPQRFDRATCVLAHTGITGGRHTWVVSIDLAHGGSCTVGVVSEDVQRKGELRLRPEEGVWAVRLAWGFVSALGSFPTRLTLKEQPRQVRVSLDYEVGWVTFTNAVTREPIYTFTASFTRKVIPFFGLWGRGSSFSLSS
partner: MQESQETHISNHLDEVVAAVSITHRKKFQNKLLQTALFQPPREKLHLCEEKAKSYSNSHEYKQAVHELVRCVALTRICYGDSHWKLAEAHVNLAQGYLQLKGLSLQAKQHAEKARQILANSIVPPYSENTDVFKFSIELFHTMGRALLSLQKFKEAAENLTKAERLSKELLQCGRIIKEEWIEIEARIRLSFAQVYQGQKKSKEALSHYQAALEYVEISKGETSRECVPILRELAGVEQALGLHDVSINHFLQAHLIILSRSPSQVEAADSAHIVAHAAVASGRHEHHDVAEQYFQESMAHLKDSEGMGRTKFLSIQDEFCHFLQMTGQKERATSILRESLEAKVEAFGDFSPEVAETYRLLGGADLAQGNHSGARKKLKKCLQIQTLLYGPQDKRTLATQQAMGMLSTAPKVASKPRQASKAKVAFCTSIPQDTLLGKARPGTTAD

Variants of: B1
Details: with ab17a_human ABHD17A

Row | Variant | effect of a mutation on the interaction
1 | M128T | disrupting interaction strength

Variants of: B2
Details: with mkrn3_human MKRN3, Q13064

Row | Variant | effect of a mutation on the interaction
2 | K127R | with no effect
3 | E417K | with no effect

Variants of: B3
Details: with tbcd5_human TBC1D5, Q92609
Chain of tbcd5_human TBC1D5, Q92609 (Q92609 whole entry): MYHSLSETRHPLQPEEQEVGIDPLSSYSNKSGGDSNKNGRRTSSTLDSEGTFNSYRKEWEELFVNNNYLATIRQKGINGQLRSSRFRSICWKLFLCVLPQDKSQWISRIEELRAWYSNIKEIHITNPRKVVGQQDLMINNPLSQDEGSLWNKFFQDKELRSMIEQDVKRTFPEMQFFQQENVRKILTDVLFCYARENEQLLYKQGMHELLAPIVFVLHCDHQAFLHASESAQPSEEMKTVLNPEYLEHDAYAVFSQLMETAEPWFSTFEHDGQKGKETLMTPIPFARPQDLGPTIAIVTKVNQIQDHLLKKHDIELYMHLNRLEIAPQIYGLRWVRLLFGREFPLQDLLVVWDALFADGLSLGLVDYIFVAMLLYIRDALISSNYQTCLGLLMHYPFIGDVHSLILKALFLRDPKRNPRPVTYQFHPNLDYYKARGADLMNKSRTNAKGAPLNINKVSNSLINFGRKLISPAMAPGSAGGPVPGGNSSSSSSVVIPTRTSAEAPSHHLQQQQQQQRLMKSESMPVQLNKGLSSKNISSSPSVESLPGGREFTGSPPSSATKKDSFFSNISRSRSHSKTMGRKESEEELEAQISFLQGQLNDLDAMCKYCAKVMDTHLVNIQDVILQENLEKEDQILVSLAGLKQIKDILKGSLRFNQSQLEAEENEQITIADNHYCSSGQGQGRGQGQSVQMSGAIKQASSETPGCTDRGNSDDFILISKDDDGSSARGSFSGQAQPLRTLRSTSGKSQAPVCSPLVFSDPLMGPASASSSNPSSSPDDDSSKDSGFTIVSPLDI

Row | Variant | effect of a mutation on the interaction
4 | R48C | with no effect

Variants of: B4
Details: with syfm_human FARS2, O95363

Row | Variant | effect of a mutation on the interaction
5 | E222K | with no effect

Variants of: B5
Details: with ttc23_human TTC23, Q5W5X9

Row | Variant | effect of a mutation on the interaction
6 | Q210L | with no effect
